± gives the uncertainty stated by the source.
Assay: self-splicing fitness, log relative to wild type (ln ratio); higher = more splicing; Tetrahymena group I intron in knt gene, E. coli kanamycin selection, DiMSum; sequences stand for … in CUCUCU…GGAGGGAAAAGUUAUCAGGCAUGCACCUGGUAGCUAGUCUUUAAACCAAUAGAUUGCAUCGGUUUAAAAGGCAAGACCGUCAAAUUGCGGGAAAGGGGUCAACAGCCGUUCAGUACCAAGUCUCAGGGGAAACUUUGAGAUGGCCUUGCAAAGGGUAUGGUAAUAAGCUGACGGACAUGGUCCUAACCACGCAGCCAAGUCCUAAGUCAACAGAUCUUCUGUUGAUAUGGAUGCAGUUCACAGACUAAAUGUCGGUCGGGGAAGAUGUAUUCUUCUCAUAAGAUAUAGUCGGACCUCUCCUUAAUGGGAGCUAGCGGAUGAAGUGAUGCAACACUGGAGCCGCUGGGAACUAAUUUGUAUGCGAAAGUAUAUUGAUUAGUUUUGGAGUACUCGUGGUCG
Method in brief: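 The eight P1ex-region nucleotides of an intron in the knt kanamycin-resistance gene on pET-22b(+) were all randomised and the library put into E. coli BL21(DE3). Six replicate transformations were grown overnight at 37°C or 30°C on LB agar with or without 25 μg/mL kanamycin, together with 100 μg/mL carbenicillin, 50 μM IPTG and 0.2% rhamnose. Colonies were pooled and amplicon-sequenced on an Illumina HiSeq 2500. Fitness from DiMSum is the error-weighted combination of wild-type-normalised replicate fold changes, kanamycin over none.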

| Sequence | self-splicing fitness (ln) (30 °C) | self-splicing fitness (ln) (37 °C) |
| --- | --- | --- |
| UGUAAGCAAUAUUACGUUAG | -1.56 ± 0.14 | -0.556 ± 0.17 |
| CUUUAGCAAUAUUACGGUGU | -3.52 ± 0.21 | -3.12 ± 0.25 |
| AUAUAGCAAUAUUACGUAUG | -3.36 ± 0.25 | -1.72 ± 0.3 |
| GAUGAGCAAUAUUACGGUAG | -2.01 ± 0.14 | -2.2 ± 0.21 |
| ACUGAGCAAUAUUACGCGAC | -2.51 ± 0.43 | -1.46 ± 0.29 |
| GACUAGCAAUAUUACGAAGA | -1.87 ± 0.13 | -0.416 ± 0.13 |
| GGAUAGCAAUAUUACGUAUG | -1.66 ± 0.28 | -0.951 ± 0.23 |
| GCGCAGCAAUAUUACGAACA | -1.64 ± 0.12 | -1.32 ± 0.097 |
| UAACAGCAAUAUUACGGGCU | -4.01 ± 0.21 | -2.3 ± 0.16 |
| AUGGAGCAAUAUUACGCAGG | -3.69 ± 0.26 | -2.89 ± 0.4 |
| UGCAAGCAAUAUUACGGAAG | -3.38 ± 0.14 | -1.44 ± 0.1 |
| CGUAAGCAAUAUUACGAGCG | -1.02 ± 0.11 | -2.67 ± 0.24 |
| GGCUAGCAAUAUUACGUUCC | -1.62 ± 0.11 | -0.39 ± 0.11 |
| AUUUAGCAAUAUUACGUAUG | -2.35 ± 0.34 | -0.838 ± 0.41 |
| GUAAAGCAAUAUUACGCGCU | -1.4 ± 0.075 | -0.523 ± 0.096 |
| CAACAGCAAUAUUACGAUCC | -2.87 ± 0.2 | -1.4 ± 0.16 |
| GACAAGCAAUAUUACGGAAU | -1.92 ± 0.11 | -1.35 ± 0.12 |
| AAAAAGCAAUAUUACGGAGG | -3.71 ± 0.21 | -2.94 ± 0.2 |
| AAACAGCAAUAUUACGGGUU | -2.28 ± 0.09 | -1.8 ± 0.11 |
| CUGAAGCAAUAUUACGCACU | -4.4 ± 0.39 | -1.32 ± 0.18 |

| Sequence | self-splicing fitness (ln) (30 °C) | self-splicing fitness (ln) (37 °C) |
| --- | --- | --- |
| UGACAGCAAUAUUACGUGAG | -0.267 ± 0.028 | -0.365 ± 0.046 |
| GGACAGCAAUAUUACGGACG | -0.636 ± 0.12 | -0.327 ± 0.12 |
| ACGUAGCAAUAUUACGGAUU | -2.5 ± 0.14 | -1.8 ± 0.2 |
| UAUAAGCAAUAUUACGCGCG | -0.131 ± 0.11 | -0.655 ± 0.14 |
| UUACAGCAAUAUUACGUCCU | -2.11 ± 0.1 | -0.74 ± 0.089 |
| GCGGAGCAAUAUUACGUUGC | -4.4 ± 0.42 | -2.78 ± 0.34 |
| AUACAGCAAUAUUACGUGGA | -3.06 ± 0.12 | -2.47 ± 0.12 |
| GAAUAGCAAUAUUACGGUCC | -2.78 ± 0.24 | -0.862 ± 0.25 |
| CUUAAGCAAUAUUACGGUUG | -1.95 ± 0.14 | -1.3 ± 0.14 |
| AUAUAGCAAUAUUACGCACU | -0.015 ± 0.13 | -0.204 ± 0.16 |
| GCCAAGCAAUAUUACGAAGA | -2.96 ± 0.21 | -1.39 ± 0.17 |
| UCCCAGCAAUAUUACGGGCG | -0.841 ± 0.058 | -0.455 ± 0.07 |
| CCAUAGCAAUAUUACGGAAA | -2.94 ± 0.41 | -2.36 ± 0.34 |
| UACAAGCAAUAUUACGAGUG | -1.35 ± 0.064 | -0.768 ± 0.071 |
| CGCAAGCAAUAUUACGAUAU | -2.7 ± 0.14 | -1.91 ± 0.13 |
| GACGAGCAAUAUUACGGAAA | -2.69 ± 0.3 | -1.47 ± 0.29 |
| AACCAGCAAUAUUACGUAGU | -1.99 ± 0.06 | -1.42 ± 0.071 |
| AAUGAGCAAUAUUACGCGUU | -3.81 ± 0.27 | -2.06 ± 0.23 |
| GUUGAGCAAUAUUACGGCAA | -1.78 ± 0.42 | -0.283 ± 0.48 |
| AGUAAGCAAUAUUACGGUAG | -3.89 ± 0.23 | -3.44 ± 0.29 |

| Sequence | self-splicing fitness (ln) (30 °C) | self-splicing fitness (ln) (37 °C) |
| --- | --- | --- |
| CUUGAGCAAUAUUACGAUAA | -3.27 ± 0.31 | -0.951 ± 0.37 |
| GGCCAGCAAUAUUACGCAGA | -1.66 ± 0.082 | -1.28 ± 0.08 |
| GAAGAGCAAUAUUACGAACC | -1.82 ± 0.25 | -1.13 ± 0.29 |
| AGAGAGCAAUAUUACGUGUA | -2.73 ± 0.3 | -2.78 ± 0.32 |
| ACAAAGCAAUAUUACGCCCG | -0.191 ± 0.13 | 0.177 ± 0.16 |
| CAGCAGCAAUAUUACGACUG | -3.64 ± 0.24 | -2.76 ± 0.33 |
| UGCGAGCAAUAUUACGAGUU | -3.05 ± 0.14 | -1.35 ± 0.13 |
| CUCGAGCAAUAUUACGAGAU | -2.87 ± 0.23 | -2.76 ± 0.27 |
| CAGGAGCAAUAUUACGUCCU | -2.72 ± 0.24 | -2.08 ± 0.24 |
| UGUUAGCAAUAUUACGGGGG | -3.91 ± 0.35 | -1.94 ± 0.36 |
| UUCUAGCAAUAUUACGGUAG | -2.29 ± 0.23 | -3.15 ± 0.37 |
| AAGAAGCAAUAUUACGAAGC | -3.02 ± 0.18 | -2.43 ± 0.28 |
| CCACAGCAAUAUUACGUGCC | -1.6 ± 0.15 | -2.36 ± 0.21 |
| ACUCAGCAAUAUUACGUAUG | -3.11 ± 0.24 | -1.35 ± 0.16 |
| UCGUAGCAAUAUUACGGCUC |  | -1.44 ± 0.24 |
| UUGUAGCAAUAUUACGCAUA | -1.81 ± 0.16 | -1.31 ± 0.15 |
| GUACAGCAAUAUUACGUAAA | -2.87 ± 0.14 | -1.44 ± 0.16 |
| CAGAAGCAAUAUUACGGCGU | -2.01 ± 0.18 | -1.18 ± 0.18 |
| UAUCAGCAAUAUUACGAUUU | 0.142 ± 0.055 | 0.207 ± 0.07 |
| UUACAGCAAUAUUACGAUCG | -0.32 ± 0.09 | -0.268 ± 0.11 |
